The text below walks through data of the supplement of paper PMC9170038.

For the series, the system named is MS2 coat protein. Description: apparent KD of MS2 coat protein; designed switch direction (-1 OFF switch, 1 ON switch): -1; higher = weaker reporter binding. In outline:
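Stalled E. coli RNA polymerase transcribed designed RNA switches on Illumina chips, which were then titrated with SNAP-549-labelled MS2 coat protein, doubling from 0.7 or 1.5 nM to 3 µM. Steps lasted from 0.8–1.5 h at the lowest concentration to 10–20 min at the highest. The apparent KD is each design's median over clusters of curve-fitted normalised fluorescence.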

The mark [1] stands for this setting: Eterna round: R95, input ligand: FMN 200 uM.
Setting [2] is: Eterna round: R95, input ligand: microRNA oligo, concentration not stated.
Where [3] appears, read: Eterna round: R95, input ligand: none.
[4] abbreviates: input ligand: microRNA oligo, concentration not stated.

“AAAUAGCUAGAGGAUAUCGGAUAGAAUUUAUUACGAGAAGGUUAGACAUGAGGAUCACCCAUGUUCUGUUGGGA [EX6 #22] (Eterna round: R97, puzzle: Exclusion 6)”: the “apparent KD of MS2 coat protein” value (input ligand: FMN 200 uM) is 70 nM and the “apparent KD of MS2 coat protein” value (input ligand: none) stood at 33.8 nM.

As for “AAAUAGGGAGGAUAUCCAAUAUAUGACAUGAGGAUCACCCAUGUUUCCACUCGUACCUCCGGAGAAGGCCCAUAAA [Ex5 #3] (Eterna round: R97, puzzle: Exclusion 5)”, the “apparent KD of MS2 coat protein” value is 20.9 nM (input ligand: FMN 200 uM) and 21.8 nM (input ligand: none).

As to “AAAUCGGUAGAGGAUAUUGUACAGGAAACGGUGCAAGAAGGUUACACAUGAGGAUCACCCAUGUUAAAUUGCGA [EX6 #52] (Eterna round: R97, puzzle: Exclusion 6)”, the “apparent KD of MS2 coat protein” value was determined as 21.4 nM (input ligand: FMN 200 uM) and 17.3 nM (input ligand: none).

Consider “AAAUCUCACGUAAGGAUAUCCUGGGCAACGUCCACGGAGAAGGUACAUGAGGAUCACCCAUGUGCUCGCUAUAC [BmEX4 C.1] (Eterna round: R97, puzzle: Brourd's mod of Exclusion 4)”, for which the “apparent KD of MS2 coat protein” value by setting is: (input ligand: FMN 200 uM) 25.2 nM; (input ligand: none) 19.7 nM.

On to “AAAUCUGAGAAGGAUAUGGUACAGGAAAUGGUGCCAGAAGGUUUCACAUGAGGAUCACCCAUGUCGAAUAGUGA [EX6 #65] (Eterna round: R97, puzzle: Exclusion 6)”, for which the “apparent KD of MS2 coat protein” value is, setting by setting: (input ligand: FMN 200 uM) 29.6 nM; (input ligand: none) 19.3 nM.

For “AAAUGCAAGUAAAGAUUCUACAUGAGGAUCACCCAUGUGCUCGUCUUAUAAAGUACUAUCACGAAAGUGAUAGUACA [Sensor 3, v1 - 35] (puzzle: Sensor v3, turn-off variant 1)”, the “apparent KD of MS2 coat protein” value reads like this: under setting [1], 14.2 nM; under setting [2], 100 nM; under setting [3], 14.2 nM.

“AAAUUAAGUGUGAGGAUAUGCUGGUCCAUAGAUCAGCAGAAGGCACAUGAGGAUCACCCAUGUAAUAUAUUUAA [Mat - Exclusion 4 - JL Mod - D51] (puzzle: Brourd's mod of Exclusion 4)”: the “apparent KD of MS2 coat protein” value by setting is: under setting [1], 134 nM; under setting [2], 29.4 nM; under setting [3], 23 nM.

As for “AAAUUAAGUGUGAGGAUAUGCUGGUCCUUAGAUCAGCAGAAGGCACAUGAGGAUCACCCAUGUAAUAUAUUUAA [Mat - Exclusion 4 - JL Mod - D50] (puzzle: Brourd's mod of Exclusion 4)”, the “apparent KD of MS2 coat protein” value under setting [2] turned out to be 35.4 nM.

Turning to “AAAUUAGCAAGUAGAUCCGACAUGAGGAUCACCCAUGUAAUCUAAAAUUACGCUGCACGAAAGUGCGCUCGUCUUAG [Sensor-V1 #13] (Eterna round: R97, puzzle: Sensor, turn-off variant 1)”, the “apparent KD of MS2 coat protein” value reads like this: (input ligand: FMN 200 uM) 362 nM; (input ligand: none) 405 nM.

“AAAUUAGCAAGUAGGUCCGACAUGAGGAUCACCCAUGUAAUCUGAAAUUACGCUGCACGAAAGUGCGCUCGUCUUAG [Sensor-V1 #11] (Eterna round: R97, puzzle: Sensor, turn-off variant 1)”: the “apparent KD of MS2 coat protein” value is, setting by setting: (input ligand: FMN 200 uM) 149 nM; (input ligand: none) 149 nM.

Regarding “AAAUUGCUAGAGGAUAUCGGAUAGGAUCUAUCGCGAGAAGGCUGGACAUGAGGAUCACCCAUGUUCUGUUGGGA [EX6 #29] (Eterna round: R97, puzzle: Exclusion 6)”, the “apparent KD of MS2 coat protein” value runs as follows: (input ligand: FMN 200 uM) 57.4 nM; (input ligand: none) 25.2 nM.

As for “AAAUUGGUAGAGGAUAUCGCACAGGAAACACUGCGAGAAGGCUGCACAUGAGGAUCACCCAUGUUUAGUUGCGA [EX6 #37] (Eterna round: R97, puzzle: Exclusion 6)”, the “apparent KD of MS2 coat protein” value reads like this: (input ligand: FMN 200 uM) 22.5 nM; (input ligand: none) 16.6 nM.

Turning to “AAAUUGGUAGAGGAUAUUGUACAGGAAACGGUGCGAGAAGGUUGCACAUGAGGAUCACCCAUGUUAAGUUGCGA [EX6 #46] (Eterna round: R97, puzzle: Exclusion 6)”, the “apparent KD of MS2 coat protein” value (input ligand: FMN 200 uM) came out at 39.9 nM and the “apparent KD of MS2 coat protein” value (input ligand: none) turned out to be 25.7 nM.

“AAAUUGUGAGGAUAUCAGGUGUGCUAGCGUACUGGUACAUCUGAGAAGGCACAUGAGGAUCACCCAUGUUUCUU [Mat - Exclusion 4 - Mod of JL - D43] (puzzle: Exclusion 4)”: under setting [2], the “apparent KD of MS2 coat protein” value worked out at 15.2 nM.

On to “AAAUUUGGAGGAUAUCCAUUGGGAAACAUGAGGAUCACCCAUGUAAUAAAAGGGAAAUCCGGAGAAGGCCAAAUUU [-20.39, -19.1 kcal, 39% A] (Eterna round: R97, puzzle: Exclusion 5)”, for which the “apparent KD of MS2 coat protein” value (input ligand: FMN 200 uM) amounted to 45.7 nM and the “apparent KD of MS2 coat protein” value (input ligand: none) was 19.1 nM.

Regarding “AACAACGUAGGAUAUGCAGCUACGGACUUGAGGAUCACCCAAGUGAUCAUAGCCCGUAUAGCAGAAGGGCGGAUCA [Arontebi] (Eterna round: R97, puzzle: Exclusion 5)”, the “apparent KD of MS2 coat protein” value turned out to be 321 nM (input ligand: FMN 200 uM) and 224 nM (input ligand: none).

With “AACAAUAAGGAGGAUAUCGUAUCGGAAACGAUACGAGAAGGCUUAACAUGAGGAUCACCCAUGUUCUUCAAUAA [Fiskers Ex 6 - 24] (puzzle: Exclusion 6)”, the “apparent KD of MS2 coat protein” value was 19.1 nM under setting [1], 17.1 nM under setting [2] and 17.7 nM under setting [3].

Turning to “AACAGGUCAGGAUAUACAUGAGGAUCACCCAUGUAGACUUCUGGUCUACCUUGACCGUGUAGAAGGGACCUGAA [Exclusion 3 (MOD2 of #98 Marzena11)] (Eterna round: R97, puzzle: Exclusion 3)”, the “apparent KD of MS2 coat protein” value reads like this: (input ligand: FMN 200 uM) 43.9 nM; (input ligand: none) 28.8 nM.

For the sequence “AACAGUACAGGAUAUACAUGAGGAUCACCCAUGUGAGACUUAAGUGGCGUACCACAAAGUAGAAGGGUACUGGA [JL Maslow Revisted mod 8] (Eterna round: R96, puzzle: Exclusion 3)”, the “apparent KD of MS2 coat protein” value runs as follows: (input ligand: FMN 200 uM) 838 nM; under setting [4], 85.9 nM; (input ligand: none) 90.3 nM.

On to “AACAGUCUGGAGGAUAUGCUGGAUUAAUAUCUGGCAGAAGGCUGGACAUGAGGAUCACCCAUGUAAAUACUACC [Omei Ex6 A2] (Eterna round: R97, puzzle: Exclusion 6)”, for which the “apparent KD of MS2 coat protein” value reads like this: (input ligand: FMN 200 uM) 55.2 nM; (input ligand: none) 21.5 nM.

On to “AACAUGUAAGGAUAUAAAAGAAGGAGUACAAAGCCCUCCUAUUAGAAGGUACAUGAGGAUCACCCAUGUGGCGG [Eternabot (L2) Solution 96] (Eterna round: R97, puzzle: Exclusion 4)”, for which the “apparent KD of MS2 coat protein” value (input ligand: FMN 200 uM) was 336 nM and the “apparent KD of MS2 coat protein” value (input ligand: none) turned out to be 57.1 nM.

“AACAUGUGAGGAUAUUUAAGAAAAGAAAAGAAAGAAAAGAAAAAGAAGGCACAUGAGGAUCACCCAUGUAAGAA [EteRNA is fun!] (Eterna round: R96, puzzle: Exclusion 4)”: the “apparent KD of MS2 coat protein” value under setting [4] was 19 nM.

As for “AACCAGCGAGGAUAUGCUUGCGCGUGUUCUGGUUGUAAUCGACUUGAGGAUCACCCAAGUAGAAGGCGCUGCCG [EX2 #51] (Eterna round: R97, puzzle: Exclusion 2)”, the “apparent KD of MS2 coat protein” value was found to be 100 nM (input ligand: FMN 200 uM) and 50.9 nM (input ligand: none).

For “AACCGUGCGGAGGAUAUUGAUAUCCCAGUCUAUCAAGAAGGCUGCACAUGAGGAUCACCCAUGUGAUCCGUGCU [Riri] (Eterna round: R96, puzzle: Exclusion 6)”, the “apparent KD of MS2 coat protein” value (input ligand: FMN 200 uM) was 201 nM, the “apparent KD of MS2 coat protein” value under setting [4] was determined as 20.7 nM and the “apparent KD of MS2 coat protein” value (input ligand: none) stood at 25.1 nM.
